Assay results from patent US20160215027A1.

Legend:
[1] = molecular target: human IgG (human); assay: human IgG binding to commercial gel support (ligand at 6 mg/mL gel on epoxy-activated crosslinked agarose); elution, A280
[2] = molecular target: human IgG (human); assay: human IgG binding to commercial gel support (epoxy-activated crosslinked agarose); elution, A280

Substance | Human IgG binding amount [1] [mg/mL gel] | Human IgG binding amount [2] [mg/mL gel]
native sequence protein A with the introduced C-terminal cysteine (ligand of rProtein A-Sepharose FF, GE Healthcare Science) (from UniProt P38507 37-327) | 50.1 | 
tetramer of four linked Z domains of protein A with the introduced C-terminal cysteine residue (ligand of MabSelect SuRe, GE Healthcare Science) (designed binder) |  | 45.5
